Measurements published in patent publication US20110311555A1.

Molecular target: endogenous AP-1 (activator protein 1) in 293 cells, activated by MEKK1
Assay: cell-based or functional assay
Conditions: scale: normalized promoter activity

- AP-1 dependent transactivation (pAP-1-Luc reporter, MEKK1-activated, 293 cells), normalized promoter activity: 176
Substance: Tcl1 R52H (pCMV5-TCL1 R52H construct) (from UniProt P56279 1-114)
